From article PMC9060465, “Structural determinants of dual incretin receptor agonism by tirzepatide” (Proceedings of the National Academy of Sciences of the …, 2022)

Assays:
[1] = biological target: isolated extracellular domain (ECD) of human GIPR, amino acids 26 to 138 (human) (UniProt P48546); test: SPR
[2] = biological target: isolated extracellular domain (ECD) of human GLP-1R, amino acids 24 to 145 (human) (UniProt P43220); test: SPR
[3] = biological target: human GLP-1R expressed in HEK293 cells (human) (UniProt P43220); test: radioligand binding
human GLP-1R expressed in HEK293 cells (human), sequence (P43220 24-463): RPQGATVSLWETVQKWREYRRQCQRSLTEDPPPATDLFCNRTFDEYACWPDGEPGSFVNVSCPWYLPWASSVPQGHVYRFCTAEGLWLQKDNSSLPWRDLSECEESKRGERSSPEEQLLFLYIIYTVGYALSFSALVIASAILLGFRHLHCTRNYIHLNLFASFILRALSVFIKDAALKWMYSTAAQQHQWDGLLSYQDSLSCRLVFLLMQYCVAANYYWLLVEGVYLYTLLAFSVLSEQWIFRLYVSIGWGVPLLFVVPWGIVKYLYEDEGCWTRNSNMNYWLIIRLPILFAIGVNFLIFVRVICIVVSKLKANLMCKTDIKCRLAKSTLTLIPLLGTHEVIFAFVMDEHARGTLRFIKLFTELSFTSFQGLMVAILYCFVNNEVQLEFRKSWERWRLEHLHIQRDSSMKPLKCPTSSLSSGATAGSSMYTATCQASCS

[4] = biological target: human GIPR expressed in HEK293 cells (human) (UniProt P48546); test: radioligand binding
human GIPR expressed in HEK293 cells (human), sequence (P48546 22-466): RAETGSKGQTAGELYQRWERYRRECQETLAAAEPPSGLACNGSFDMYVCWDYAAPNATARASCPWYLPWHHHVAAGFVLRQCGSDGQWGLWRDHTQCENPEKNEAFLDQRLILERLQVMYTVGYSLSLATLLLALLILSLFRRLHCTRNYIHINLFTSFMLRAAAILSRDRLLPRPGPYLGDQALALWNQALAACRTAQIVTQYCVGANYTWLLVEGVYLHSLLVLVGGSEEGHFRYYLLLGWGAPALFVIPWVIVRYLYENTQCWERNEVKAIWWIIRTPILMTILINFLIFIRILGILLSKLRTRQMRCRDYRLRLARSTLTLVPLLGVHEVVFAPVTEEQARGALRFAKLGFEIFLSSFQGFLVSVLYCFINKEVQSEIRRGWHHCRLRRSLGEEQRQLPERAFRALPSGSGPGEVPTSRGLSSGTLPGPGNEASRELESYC

[5] = biological target: mouse GLP-1R, endogenous in pancreatic islets (mouse (endogenous in pancreatic islets)) (UniProt O35659)
mouse GLP-1R, endogenous in pancreatic islets (mouse (endogenous in pancreatic islets)), sequence (O35659 22-463): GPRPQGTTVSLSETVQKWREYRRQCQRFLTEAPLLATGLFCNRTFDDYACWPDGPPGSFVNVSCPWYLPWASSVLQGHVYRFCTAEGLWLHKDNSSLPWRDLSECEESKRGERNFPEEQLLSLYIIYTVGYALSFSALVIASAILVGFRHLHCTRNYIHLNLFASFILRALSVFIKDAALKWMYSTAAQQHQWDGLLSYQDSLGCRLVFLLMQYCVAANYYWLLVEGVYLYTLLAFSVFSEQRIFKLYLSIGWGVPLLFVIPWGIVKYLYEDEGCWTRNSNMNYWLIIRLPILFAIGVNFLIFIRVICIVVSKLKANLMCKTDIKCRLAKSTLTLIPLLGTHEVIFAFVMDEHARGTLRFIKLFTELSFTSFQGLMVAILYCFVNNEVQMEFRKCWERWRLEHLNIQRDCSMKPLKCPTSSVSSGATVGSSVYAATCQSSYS

[6] = biological target: human GLP-1R expressed in HEK293 cells (human) (UniProt P43220); settings: ligand

isolated extracellular domain (ECD) of human GIPR, amino acids 26 to 138 (human), sequence (P48546 26-138): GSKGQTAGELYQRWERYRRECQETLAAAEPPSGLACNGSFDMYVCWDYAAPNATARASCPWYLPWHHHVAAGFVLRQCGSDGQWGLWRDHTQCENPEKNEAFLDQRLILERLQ
isolated extracellular domain (ECD) of human GLP-1R, amino acids 24 to 145 (human), sequence (P43220 24-145): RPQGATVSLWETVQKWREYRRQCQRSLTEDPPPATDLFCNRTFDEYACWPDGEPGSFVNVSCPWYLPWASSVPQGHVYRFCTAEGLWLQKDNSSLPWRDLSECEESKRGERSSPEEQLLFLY

| Substance | Kd [1] [µM] | other [3] [fold] | intracellular fluorescence intensity of islet cells from wild-type mice, 30 nM labelled ligand for 30 min, confocal microscopy; negligible (≤4.0) after exendin-4(9-39) or in Glp-1r null islets [5] | further results |
| --- | --- | --- | --- | --- |
| tirzepatide analog lacking the lipid moiety (TZP^ΔC20) (peptide) | 1.7 | 5 |  | Kd [2]: 0.111 µM; other [4]: 4 fold |
| tirzepatide^ΔC20,Y1H-AF647 (peptide) |  |  | 85.3 |  |
| GLP-1^AF647 (ligand) |  |  | 104 |  |
| glucagon-like peptide-1 (GLP-1) |  |  |  | Ki [6]: 0.000594 µM |
| tirzepatide^AF647 (peptide) |  |  | 46 |  |
| tirzepatide (LY3298176) (peptide) | 4.2 | 5 |  |  |
